Laboratory results published in patent publication US20240279358A1 (Alector, published 2024).

B1: monovalent anti-MerTK antibody MTK-16.2 LALAPS (antibody, human IgG1, kappa, L234A L235A)
heavy: not shown
light: DIQMTQSPSSLSASVGDRVTITCRASQNVRTAVAWYQQKPGKAPKRLIYLASNRHTGVPSRFSGSGSGTEFTLTISNLQPEDFATYYCLQHWNYPLTFGGGTKLEIKRTVAAPSVFIFPPSDEQLKSGTASVVCLLNNFYPREAKVQWKVDNALQSGNSQESVTEQDSKDSTYSLSSTLTLSKADYEKHKVYACEVTHQGLSSPVTKSFNRGEC
chain: DKTHTCPPCPAPEAAGGPSVFLFPPKPKDTLMISRTPEVTCVVVDVSHEDPEVKFNWYVDGVEVHNAKTKPREEQYNSTYRVVSVLTVLHQDWLNGKEYKCKVSNKALPASIEKTISKAKGQPREPQVYTLPPSRDELTKNQVSLSCAVKGFYPSDIAVEWESNGQPENNYKTTPPVLDSDGSFFLVSKLTVDKSRWQQGNVFSCSVMHEALHNHYTQKSLSLSPGK
notes: One-armed antibody, human IgG1 LALAPS; Dylight650-conjugated in the FACS assay; also called MTK-16.2 monovalent LALAPS; MTK-16.2 monoarm
B2: bivalent anti-MerTK antibody MTK-33.11 LALAPS (antibody, human IgG1, kappa, L234A L235A, V domains shown)
VH: QVQLVQSGAEVKKPGASVKVSCKASGYTFTSYWMHWVRQAPGQGLEWIGVIDPSDNYINYNQKFQGRVTMTRDTSTSTVYMELSSLRSEDTAVYYCAREAWTRGYFDYWGQGTLVTVSS
VL: DIQMTQSPSSLSASVGDRVTITCQASRSVRNTVAWYQQKPGKAPKLLIYYASNRYTGVPSRFSGSGSGTDFTFTISSLQPEDIATYYCQQDYRSPFTFGQGTKLEIKR
notes: Two full-length heavy chains and two full-length light chains, human IgG1 LALAPS; Dylight650-conjugated in the FACS assay; also called MTK-33.11 bivalent LALAPS; MTK-33.11 full IgG
B3: bivalent anti-MerTK antibody MTK-16.2 LALAPS (antibody, human IgG1, kappa, L234A L235A, V domains shown)
VH: QVQLVQSGSELKKPGASVKVSCKASGYTFTNHGMNWVRQAPGQGLEWMGWINTYTGEPTYADDFKGRFVFSLDTSVSTAYLQISSLKAEDTAVYYCARKGVTAARYFDYWGQGTLVTVSS
VL: DIQMTQSPSSLSASVGDRVTITCRASQNVRTAVAWYQQKPGKAPKRLIYLASNRHTGVPSRFSGSGSGTEFTLTISNLQPEDFATYYCLQHWNYPLTFGGGTKLEIKR
notes: Two full-length heavy chains and two full-length light chains, human IgG1 LALAPS; Dylight650-conjugated in the FACS assay; also called MTK-16.2 bivalent LALAPS; MTK-16.2 full IgG

What was measured:
[1] = biological target: T1, human MerTK overexpressed on CHO cells (CHO-huMerTK OE) (human, UniProt Q12866 21-999); test: FACS, Dylight650-conjugated antibody titrated on CHO-huMerTK OE cells; Kd fitted in Prism from MFI
T1 construct: also called human MerTK overexpressing CHO cells; not shown: mGFP tag of the lentiviral ORF clone
T1 sequence: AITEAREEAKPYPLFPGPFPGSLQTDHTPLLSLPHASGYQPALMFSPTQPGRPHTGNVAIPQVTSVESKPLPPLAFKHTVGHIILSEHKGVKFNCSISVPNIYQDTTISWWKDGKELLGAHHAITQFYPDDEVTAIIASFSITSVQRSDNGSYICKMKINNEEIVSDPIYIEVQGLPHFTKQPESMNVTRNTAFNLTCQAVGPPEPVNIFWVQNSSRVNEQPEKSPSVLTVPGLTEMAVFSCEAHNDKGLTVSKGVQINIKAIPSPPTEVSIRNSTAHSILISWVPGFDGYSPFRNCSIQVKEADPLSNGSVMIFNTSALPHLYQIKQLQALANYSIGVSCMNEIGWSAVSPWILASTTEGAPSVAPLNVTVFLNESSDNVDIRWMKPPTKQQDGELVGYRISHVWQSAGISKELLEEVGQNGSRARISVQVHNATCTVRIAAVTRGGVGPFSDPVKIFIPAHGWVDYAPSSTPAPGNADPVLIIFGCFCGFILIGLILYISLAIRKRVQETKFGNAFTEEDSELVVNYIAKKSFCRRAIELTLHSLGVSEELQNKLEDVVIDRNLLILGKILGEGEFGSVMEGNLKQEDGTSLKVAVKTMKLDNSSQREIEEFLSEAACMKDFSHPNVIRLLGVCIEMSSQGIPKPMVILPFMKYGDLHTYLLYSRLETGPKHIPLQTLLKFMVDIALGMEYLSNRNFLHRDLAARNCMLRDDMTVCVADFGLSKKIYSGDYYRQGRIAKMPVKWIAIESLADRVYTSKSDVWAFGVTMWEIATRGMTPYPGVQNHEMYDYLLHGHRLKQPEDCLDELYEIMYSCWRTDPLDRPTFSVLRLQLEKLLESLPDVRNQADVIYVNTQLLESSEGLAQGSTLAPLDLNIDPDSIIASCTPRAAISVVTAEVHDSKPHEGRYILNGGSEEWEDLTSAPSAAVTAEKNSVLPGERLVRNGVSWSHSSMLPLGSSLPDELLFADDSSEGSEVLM

[2] = biological target: T2, human MerTK on M2c-differentiated human macrophages (human, UniProt Q12866 21-999); test: FACS, Dylight650-conjugated antibody titrated on M2c-differentiated human macrophages; Kd fitted in Prism from MFI
T2 construct: Endogenous MerTK on primary macrophages differentiated from human monocytes with M-CSF
T2 sequence: T1 sequence
Description: (§1) Human macrophages were differentiated from human monocytes for 7 days in the presence of human M-CSF, resulting in M2c-differentiated human macrophages. After 7 days, the differentiated human macrophages were harvested (by scraping), resuspended in PBS, and plated on 96-well plates for use. CHO cells overexpressing human MerTK (CHO-huMerTK OE) or M2c-differentiated human macrophages were stained with Dylight650-conjugated monovalent anti-MerTK antibodies or bivalent anti-MerTK antibodies (i.e., anti-MerTK antibodies comprising two full-length heavy chains and two full-length light chains) for 30 min on ice. A range of antibody concentrations were used in these studies to obtain binding curves. […] Cells were fixed and then acquired on a BD FACS Canto II cytometer. The mean fluorescence intensity (MFI) was calculated using FlowJo software and Kd value was calculated using Prism software.

[3] = biological target: T2, human MerTK on M2c-differentiated human …; test: cell-based or functional assay
[4] = biological target: T3, recombinant murine MerTK extracellular domain (mouse, UniProt Q60805 19-497); test: SPR (Carterra LSA), antibody immobilised on an HC30 chip, MerTK ECD as analyte
T3 construct: The entry starts with the native signal peptide; also called moMerTK; murine MerTK ECD; not shown: tag
T3 sequence: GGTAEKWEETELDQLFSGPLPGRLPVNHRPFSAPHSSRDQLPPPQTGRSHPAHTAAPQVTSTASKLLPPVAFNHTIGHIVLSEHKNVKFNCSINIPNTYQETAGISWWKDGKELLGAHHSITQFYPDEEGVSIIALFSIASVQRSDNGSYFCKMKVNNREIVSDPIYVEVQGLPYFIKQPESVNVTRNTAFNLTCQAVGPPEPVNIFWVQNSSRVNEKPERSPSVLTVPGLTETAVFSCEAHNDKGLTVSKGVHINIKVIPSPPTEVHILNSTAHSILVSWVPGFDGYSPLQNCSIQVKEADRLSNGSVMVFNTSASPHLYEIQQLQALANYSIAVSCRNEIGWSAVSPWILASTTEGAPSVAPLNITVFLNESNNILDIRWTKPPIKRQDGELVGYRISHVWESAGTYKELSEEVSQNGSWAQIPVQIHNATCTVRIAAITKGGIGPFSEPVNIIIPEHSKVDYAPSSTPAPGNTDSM

[5] = biological target: T2, human MerTK on M2c-differentiated human …; test: cell-based or functional assay; remark: listed apart in the source
[6] = biological target: T4, recombinant cynomolgus MerTK extracellular domain (cynomolgus, UniProt Q12866 21-505 (human entry)); test: SPR (Carterra LSA), antibody immobilised on an HC30 chip, MerTK ECD as analyte; estimate from a 1:1 fit
T4 construct: The entry starts with the native signal peptide; also called cynoMerTK; cyno MerTK ECD; not shown: tag
T4 chain: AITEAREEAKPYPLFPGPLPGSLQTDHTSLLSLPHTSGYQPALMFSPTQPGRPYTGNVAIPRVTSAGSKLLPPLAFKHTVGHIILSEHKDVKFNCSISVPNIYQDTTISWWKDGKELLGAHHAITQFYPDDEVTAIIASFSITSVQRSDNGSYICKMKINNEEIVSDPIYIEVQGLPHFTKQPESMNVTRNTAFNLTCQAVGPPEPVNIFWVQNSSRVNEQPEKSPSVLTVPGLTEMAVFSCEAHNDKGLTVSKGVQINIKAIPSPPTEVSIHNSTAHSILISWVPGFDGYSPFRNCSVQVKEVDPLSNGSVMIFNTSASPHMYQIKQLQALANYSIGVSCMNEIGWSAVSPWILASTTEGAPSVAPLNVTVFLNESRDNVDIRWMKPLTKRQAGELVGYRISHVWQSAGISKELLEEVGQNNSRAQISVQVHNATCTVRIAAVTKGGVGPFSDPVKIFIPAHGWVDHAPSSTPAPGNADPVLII

[7] = biological target: T5, recombinant human MerTK extracellular domain (human, UniProt Q12866 21-505); test: as above
T5 construct: The entry starts with the native signal peptide, while the construct used a heterologous signal peptide; also called huMerTK; human MerTK ECD; not shown: tag
T5 sequence: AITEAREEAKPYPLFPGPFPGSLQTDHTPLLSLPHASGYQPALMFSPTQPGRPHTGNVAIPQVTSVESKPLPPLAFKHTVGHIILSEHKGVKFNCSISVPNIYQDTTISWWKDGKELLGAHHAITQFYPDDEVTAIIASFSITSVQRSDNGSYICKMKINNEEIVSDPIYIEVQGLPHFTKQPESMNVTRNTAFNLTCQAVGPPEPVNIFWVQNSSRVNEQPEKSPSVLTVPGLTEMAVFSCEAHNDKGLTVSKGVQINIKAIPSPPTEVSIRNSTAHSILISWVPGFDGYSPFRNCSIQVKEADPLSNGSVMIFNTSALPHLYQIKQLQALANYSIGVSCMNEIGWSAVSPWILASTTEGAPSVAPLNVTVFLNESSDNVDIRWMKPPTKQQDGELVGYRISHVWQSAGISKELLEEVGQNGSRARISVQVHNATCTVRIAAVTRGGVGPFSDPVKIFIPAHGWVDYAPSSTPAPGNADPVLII

[8] = biological target: T2, human MerTK on M2c-differentiated human …; test: cell-based or functional assay; remark: listed apart in the source
[9] = biological target: T1, human MerTK overexpressed on CHO cells …; test: FACS on CHO-huMerTK OE cells; reference is monovalent MTK-33.11
Description: as §1

[10] = biological target: T2, human MerTK on M2c-differentiated human …; test: FACS on M2c-differentiated human macrophages; reference is monovalent MTK-33.11
Description: as §1

[11] = biological target: T3, recombinant murine MerTK extracellular …; test: SPR (Carterra LSA), antibody immobilised on an HC30 chip, MerTK ECD as analyte; estimate from a 1:1 fit
Protocol: Binding kinetics of monovalent anti-MerTK antibodies of the present disclosure to human, cyno, and murine MerTK were evaluated using a Carterra LSA instrument. […] A HC30 sensor chip (Carterra) was activated using the single channel flow cell with a 7-minute injection of a 1:1:1 mixture of 100 mM MES pH 5.5, 100 mM sulfo-NHS, 400 mM EDC (all reconstituted in MES pH 5.5; 100 μl of each mixed in vial immediately before running assay). After switching to the multi-channel array flow cell, the antibodies were injected over the activated chip in a 96-spot array for 15 minutes. A duplicate injection of the antibodies on a second block of the chip was spotted as before. The remaining unconjugated active groups on the chip were then blocked by injecting 1M Ethanolamine pH 8.5 (Carterra) for 7 minutes using the single channel flow cell.
After priming with running buffer (HBS-TE, Carterra) with 0.5 mg/ml BSA (Sigma), the immobilized anti-MerTK antibodies were tested for their ability to bind to several forms of recombinant MerTK extracellular domain, including that of human, cynomolgus, and mouse orthologs as described above. Estimates of affinity were generated by injecting each analyte over the entire antibody array using the single channel flow cell. […] Dissociation was followed for 300 seconds before regenerating after each injection with 2×30 seconds of 10 mM Glycine pH2.5. Three buffer blanks were run between each series (one species per series). After all concentrations of all three species of MerTK were injected, a duplicate set of injections was performed, so that each concentration for all three species was injected in widely spaced duplicates. Data were processed and analyzed using NextGenKIT high-throughput kinetics analysis software (Carterra).

[12] = biological target: T1, human MerTK overexpressed on CHO cells …; test: FACS, Dylight650-conjugated antibody on CHO-huMerTK OE cells, MFI against Ab concentration
Description: as §1

Row | Binder | Kd [1] [nM] | Kd [2] [nM] | Average pAKT IC50 (nM) in the presence of huGas6 [3] [nM] | binding result [4] | Efferocytosis blocking Average IC50 [5] [nM] | Kd [6] [nM] | Kd [7] [nM] | Average fold change in pAKT activity in the absence of huGas6 [8] [fold] | fold higher affinity than monovalent MTK-33.11 [9] [fold] | fold higher affinity than monovalent MTK-33.11 [10] [fold] | Kd [11] [nM] | EC50 (read off the curve) [12] [nM]
1 | B1 | 40.5 | 77.8 | 15.3 | no binding | 37.9 | 60 | 50 | 1.22 | – | – | – | –
2 | B2 | 0.439 | 2 | 1.25 | – | 0.341 | 2 | 2 | 1.41 | ~10 | ~5 | 50 | ~4
3 | B3 | 42.5 | 51.9 | 3.22 | no binding | 0.436 | 60 | 50 | 1.57 | – | – | – | ~20
